According to the nanobody polyreactivity screen of Harvey et al. (2022):

Assay: yeast display, Sf9 membrane polyspecificity reagent, FACS + sequencing; frameworks hold sequencing errors
Procedure, shortened: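 In a synthetic yeast display library (Saccharomyces cerevisiae BJ5465), nanobody expression was induced with galactose for 36–48 hours. FACS gates were set low and high (top ~1%) using anti-HA fluorescence for expression and streptavidin fluorescence for binding of the Sf9 membrane reagent. Each polyreactivity label is drawn from the gate of origin.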
With “QVQLVESGGGLVQAGGSLRLSCAASGSIFGYYVMGWYRQAPGKERELVAAITRSGSTYYADSVKGRFTISRDNAKNTVYLQMNSLKPEDTAVYYCAADGSYYWYPHTTYDYWGQGTQVTVSS” the “polyreactivity (PSR sort gate)” value was “low polyreactivity”. In the case of “QVQLVESGGGLVQAGGSLRLSCAASGSIFHDYAMGWYRQAAGKERELVAVISTSGGSTYYADSVKGRFTISRDNAKNTVYLQMNSLKPEDTAVYYCAADPFDGYSSSEYDYWGQGTQVTVSS”, the “polyreactivity (PSR sort gate)” value is reported as “low polyreactivity”. With “QVQLVESGGGLVQAGGSLRLSCAASGSIFHIYAMGWYRQAPGKERELVAAISSGGRTNYADSVKGRFTISRDNAKNTVYLQMNSLKPEDTEVYYCAADWIYLPTRNYRVRVDYWGQGTQVTVSS” the “polyreactivity (PSR sort gate)” value was “high polyreactivity”. With “QVQLVESGGGLVQAGGSLRLSCAASGSIFHKYTMGWYRQAPGKERELVAAITRSGGSTYYADSVNGRFTISRDNAKNTVYLQMNSLKAEDTAVYYCNKRYIPWAYDYWGQGTKVTVSS” the “polyreactivity (PSR sort gate)” value was “high polyreactivity”. With “QVQLVESGGGLVQAGGSLRLSCAASGSIFHNYDMGCYRQAPGKERELVADISRGGDTNYADSVKGRFTISRDNAKNTVYLQMNSLKPEDTAVYYCSADSADPTEYDYWGQGTQVTVSS” the “polyreactivity (PSR sort gate)” value was “low polyreactivity”. In the case of “QVQLVESGGGLVQAGGSLRLSCAASGSIFHSNAMGWYRQAPGKERELVAAISASGGSTYYADSVKGRFTISRDNAKNTVYLQMNSLKPEDTAVYYCNAVSRYYRFSPYYYWGQGTQVTVSS”, the “polyreactivity (PSR sort gate)” value is reported as “high polyreactivity”. With “QVQLVESGGGLVQAGGSLRLSCAASGSIFHVNAMGWYRQAPGKERELVADISKRGASTYYADSVKGRFTISRDNAKNTVYLQMNSLKPEDTAVYYCAARVVTPRRQWYTYDYWGQGTQVTVSS” the “polyreactivity (PSR sort gate)” value was “high polyreactivity”. In the case of “QVQLVESGGGLVQAGGSLRLSCAASGSIFHWYAMGWYRQAPGKERELVAAINWSGGSTYYADSVKGRFTISRDNAKNTVYLQMNSLKPEDTAVYYCNKAYVSRYDYWGQGTQVTVSS”, the “polyreactivity (PSR sort gate)” value is reported as “high polyreactivity”. In the case of “QVQLVESGGGLVQAGGSLRLSCAASGSIFHYNSMGWDRQAPGKEWGLVASMSSGGRTYYADSVKGRFTISRDNPKNTVYLQMNSLKPDDTAVYYCAAEYYQTTYVWWTYDYYGGQGTQVTVSS”, the “polyreactivity (PSR sort gate)” value is reported as “low polyreactivity”. With “QVQLVESGGGLVQAGGSLRLSCAASGSIFHYYAMGWYRQAPGKERELVAAINSTGGSRTYYADSVKGRFTISRDNAKNTVYLRMNCLKPEDTAVYYCAADYRVVWRAYDYWGQGTQVTVSS” the “polyreactivity (PSR sort gate)” value was “low polyreactivity”. In the case of “QVQLVESGGGLVQAGGSLRLSCAASGSIFHYYAMGWYRQAPGKERELVAAISSVGSTYYADSVKGRFTISRDNAKNTVYLQINSLKPEDTAVYYCAAEAYAKRYVDRYSWYYYWGQGTQVTVSS”, the “polyreactivity (PSR sort gate)” value is reported as “high polyreactivity”. With “QVQLVESGGGLVQAGGSLRLSCAASGSIFHYYTMGWYRQAPGKERELVAGISRSGGSTYYADSVKGRFTISRDNAKNTVYLQMNSLKPEDTAVYYCAAARYPYLYAYGYWGQGTQVTVSS” the “polyreactivity (PSR sort gate)” value was “high polyreactivity”. With “QVQLVESGGGLVQAGGSLRLSCAASGSIFIFNTMGWYRQAPGKETELVASISSSGSTYYADSVKGRFTISRANAKNTVYLQMNSLKPEDTAVYYCAADAEDRPSWPGNSEYEYWGQGTQVTVSS” the “polyreactivity (PSR sort gate)” value was “low polyreactivity”. For “QVQLVESGGGLVQAGGSLRLSCAASGSIFIGYAMGWYRQAPGKERELVAAISQSGGRTYYADSVKGRFTISRDNAKNTVYLQMNSLKPEDTAVYYCNKVTKSYFIYDYWGQGTQVTVSS”, the “polyreactivity (PSR sort gate)” value was “high polyreactivity”. With “QVQLVESGGGLVQAGGSLRLSCAASGSIFIGYAMGWYRQAPGKERELVAAITSAGSTYADSVKGRFTISRDNAKNTGYLQRNSVKPEDTAVYYCAARFFLVTLDYWGQGTQVTVSS” the “polyreactivity (PSR sort gate)” value was “low polyreactivity”. With “QVQLVESGGGLVQAGGSLRLSCAASGSIFIINAMGWYIQAPGKERELVAAINNGVNTYYADSVKGRFTISRDNAKNTVYLQMNSLKPEDTAVYYCAADYGDPRVNEYDYWGQGTQVTVSS” the “polyreactivity (PSR sort gate)” value was “low polyreactivity”. In the case of “QVQLVESGGGLVQAGGSLRLSCAASGSIFIINAMGWYRQAPGKERELVAAITTSGGRTYYADSVKGRFTISRDNAKNTVYLQMNSLKPEDTAVYSCASSHYGSTGNYWGQGTQVTVSS”, the “polyreactivity (PSR sort gate)” value is reported as “low polyreactivity”. In the case of “QVQLVESGGGLVQAGGSLRLSCAASGSIFIINTMGWYRQAPGKERELVAAISWGGTDTNYADSVKGRFTISRDNAKNTVYLQMNSLKPEDTAVYYCNTDQDLVRSYDYWGHGTQVTVSS”, the “polyreactivity (PSR sort gate)” value is reported as “low polyreactivity”. With “QVQLVESGGGLVQAGGSLRLSCAASGSIFIQYAMGWYRQAPGKERELVAAINSSGGRTYYADSVKGRFTISRDNAKNTVYLQMNSLKPEDTAVYYCAADHGSSFDWGQGTQVTVSS” the “polyreactivity (PSR sort gate)” value was “low polyreactivity”. In the case of “QVQLVESGGGLVQAGGSLRLSCAASGSIFIRNAKGWYRQAPGKERELVAAISTIGGRTYYADSVKGRFTISRDNAKNTVYLQMNSLKPEDTAVYYCAAEQGTPSTNWYDYWGQGTQVTVSS”, the “polyreactivity (PSR sort gate)” value is reported as “low polyreactivity”. With “QVQLVESGGGLVQAGGSLRLSCAASGSIFIRNAMGWYRQAPGKERELVAAISTIGGRTYYADSVKGRFTISRDNAKNTVYLQMNSLNPEDTAVYYCAAEQGTPSTNWYDYWGQGTQVTVSS” the “polyreactivity (PSR sort gate)” value was “low polyreactivity”. For “QVQLVESGGGLVQAGGSLRLSCAASGSIFISYAKGWYRQAPGKERELVAAINYSGGSTYYADSVKGRFTISRDNAKNTVYLQMNSLKPEDTAVYYCAKRSTYRYYGYKLRDYWGQVTQVTVSS”, the “polyreactivity (PSR sort gate)” value was “low polyreactivity”. For “QVQLVESGGGLVQAGGSLRLSCAASGSIFISYAMGWYRQAPGKERELVAAISSGGSTNYADSVKGRFTISRDNAKNTVYLQMNSLKPEDTAVYYCAADGWLLSFTGDGWWFDYWGQGTQVTVSS”, the “polyreactivity (PSR sort gate)” value was “low polyreactivity”. For “QVQLVESGGGLVQAGGSLRLSCAASGSIFITYAMGWYRQAPGKERELVAAIRDSGDRTYYADSVKGRFTISRDNAKNTVYLQMNSLKPEDTAVYFCNARWQEPLKYDYWGQGTQVTVSS”, the “polyreactivity (PSR sort gate)” value was “low polyreactivity”. In the case of “QVQLVESGGGLVQAGGSLRLSCAASGSIFITYAMGWYRQAPGKERELVAAITWRGGSTYYADSVKGRFTISRDNAKNTVYLQMNSLKPEDTAVYYCAAEDFYYRSQYRYWYDYWGQGTQVTVSS”, the “polyreactivity (PSR sort gate)” value is reported as “high polyreactivity”. In the case of “QVQLVESGGGLVQAGGSLRLSCAASGSIFITYVMGWSRQAPGKERELVAGISRSGGSTYYADSVKGRFTISRYNAKNTVYLQMNSLKPEDTAVYYCAAFFLRRPGSSGLRLLGQGTQVTVSS”, the “polyreactivity (PSR sort gate)” value is reported as “high polyreactivity”. In the case of “QVQLVESGGGLVQAGGSLRLSCAASGSIFIVNAMGWNRQAPGKERELVAAISWSGGSTYYADSVKGRFTISRDNAKNTVYLQMNSLKPEDTAVYYCAAKYTLPFRDVKYYSWGQGTQVTVSS”, the “polyreactivity (PSR sort gate)” value is reported as “high polyreactivity”. With “QVQLVESGGGLVQAGGSLRLSCAASGSIFIYNAMGWYRPAPGKETEFVDTINSGTVTKYADSVKGRFTISRDNAKNTVYLQMNSLKPEDTAVYYCATVFDRQYSTQYQVSRYDYWVQGTQVTVSS” the “polyreactivity (PSR sort gate)” value was “low polyreactivity”. For “QVQLVESGGGLVQAGGSLRLSCAASGSIFIYYAMGWYRQAPGKERELVARITGGGSTYYADSVKGRFTISRDNAKNTVYLQMNSLKPEDTAVYYCAKRGYHFLTKYDYWGQGTQVTVSS”, the “polyreactivity (PSR sort gate)” value was “low polyreactivity”. With “QVQLVESGGGLVQAGGSLRLSCAASGSIFKANAMGWYRQAPGKERELVATITSSGTRTYYADSVKGRFTISRDNAKNTVYLQMNSLKPEDTAVYYCNARAYPYQRGRYGYWGQGTQVTVSS” the “polyreactivity (PSR sort gate)” value was “high polyreactivity”. For “QVQLVESGGGLVQAGGSLRLSCAASGSIFKAYAMGWYRQAPGKERELVAAITWSAGSTYYADSVKGRFTISRDNAKNTVYLQMNSLKPEDTAVYYCAAEVRGSYYLTGYDYWGQGTQVTVSS”, the “polyreactivity (PSR sort gate)” value was “high polyreactivity”. For “QVQLVESGGGLVQAGGSLRLSCAASGSIFKFYAMGWNRQAPGKERAFVAAITYRGGSTYYADSVKGRFTISRDNAKNTVYLQMNRLKPEDTAVYYCNAVVLRWRGYLVPFNYWGQGTQVTVSS”, the “polyreactivity (PSR sort gate)” value was “high polyreactivity”. In the case of “QVQLVESGGGLVQAGGSLRLSCAASGSIFKGYAMGWYRQAPGKEREFVAAITSSDSNTNYADSVKGRFTFSRDNAKNTVYLQLHTLKPEDTAVYYCNARIYNRLYVPHYGFNYWGQGTQVTVSS”, the “polyreactivity (PSR sort gate)” value is reported as “low polyreactivity”. With “QVQLVESGGGLVQAGGSLRLSCAASGSIFKGYAMGWYRQAPGKERELVAAISRTGGSTYYADSVKGRFTISRDYAKNTVYLQMNSLKPEDTAVYYCAAYSASTYDSWGQGTQVTVSS” the “polyreactivity (PSR sort gate)” value was “high polyreactivity”. With “QVQLVESGGGLVQAGGSLRLSCAASGSIFKIYAMGWYRQAPGKERELVAAITINGGSTYYADSVKGRFTISRDNAKNTVYLQMNSLKPEDTAVYYCAASADWWYEYWGQGTQVNVSS” the “polyreactivity (PSR sort gate)” value was “low polyreactivity”. With “QVQLVESGGGLVQAGGSLRLSCAASGSIFKLNAMGWYRQAPGKERELVAAISRGGRTYYADSVKGRFTISRDNAKNTVYLQMNSLKPEDTAVYYCAADASSQIWYYPRDDYWGQGTNVTVSS” the “polyreactivity (PSR sort gate)” value was “low polyreactivity”. For “QVQLVESGGGLVQAGGSLRLSCAASGSIFKNNAMGWYRQAPGKERELVAAIRSSGGSTYYADSVKGRFTISRDNAKHTVYLQMKSLKPEDTAVYYCAARYRSYPTYYQYNYWGQGTQVTVSS”, the “polyreactivity (PSR sort gate)” value was “high polyreactivity”. For “QVQLVESGGGLVQAGGSLRLSCAASGSIFKQNAMGWYRQAPGKERELVASIRASGDRTYYADSVKGRFTISRDNAKNPVYLQMNSLKPEDSAVYYCAARRVRTRGYNYWGQGTQVTVSS”, the “polyreactivity (PSR sort gate)” value was “high polyreactivity”. With “QVQLVESGGGLVQAGGSLRLSCAASGSIFKQNAMGWYRQAPGKERELVASIRASGDRTYYADSVKGRFTISRDNAKNTVYLQMNSLKPEDTAVYYCAARRVRTRGYNYWGQGTQVTVSS” the “polyreactivity (PSR sort gate)” value was “high polyreactivity”. With “QVQLVESGGGLVQAGGSLRLSCAASGSIFKQNTKGWYRQAPGKERELVAAISSGGSTYYADSVKGRFTISRDNAKNTVYLQMNSLKPEDTAVYYCAKYYDWDYYLPLEGDYWGQGTQVTVSS” the “polyreactivity (PSR sort gate)” value was “low polyreactivity”. In the case of “QVQLVESGGGLVQAGGSLRLSCAASGSIFKQNTMGWYRQAPGKEREFVAAISSGGSTYYADSVKGRFTISRDNAKNTVYLQMNSLKPEDTAVYYCAKYYDWDYYLPLEGDYWGQGTQVTVSS”, the “polyreactivity (PSR sort gate)” value is reported as “low polyreactivity”. In the case of “QVQLVESGGGLVQAGGSLRLSCAASGSIFKQNTMGWYRQAPGKETELVAAISSGGSTYYADSVKGRFTISRDNAKNTVYLQMNSLKPEDTAVYYCAKYYDWDYYLPLEGDYWGQGTQVTVSS”, the “polyreactivity (PSR sort gate)” value is reported as “low polyreactivity”. In the case of “QVQLVESGGGLVQAGGSLRLSCAASGSIFKRNAKGWYRQAPGKERGLVAGNSQSGSSTRYADSVKGRFTISRDNAKNTVYLQMNSLKPEDTAVYYCAAELSLAYTYDYWGQGTQVTVSS”, the “polyreactivity (PSR sort gate)” value is reported as “high polyreactivity”.
